T1: GLP-1R in the INS1e assay (UniProt P32301 22-463, limits assumed)
T1 sequence (looked up): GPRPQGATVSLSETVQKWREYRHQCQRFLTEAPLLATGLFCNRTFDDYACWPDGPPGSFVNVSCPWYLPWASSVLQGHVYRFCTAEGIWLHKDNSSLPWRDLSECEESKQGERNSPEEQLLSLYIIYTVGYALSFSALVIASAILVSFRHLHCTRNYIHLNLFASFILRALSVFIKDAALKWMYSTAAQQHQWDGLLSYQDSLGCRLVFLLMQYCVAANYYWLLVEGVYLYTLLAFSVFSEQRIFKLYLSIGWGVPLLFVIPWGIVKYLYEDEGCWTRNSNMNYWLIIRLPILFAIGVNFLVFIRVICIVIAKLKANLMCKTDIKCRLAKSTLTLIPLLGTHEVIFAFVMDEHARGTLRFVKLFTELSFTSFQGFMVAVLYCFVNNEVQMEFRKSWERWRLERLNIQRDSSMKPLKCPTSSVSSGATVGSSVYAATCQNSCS

T2: glucose-dependent insulinotropic peptide (gastric inhibitory polypeptide) receptor (GIPR), primary cAMP assay (human, UniProt P48546 22-466)
T2 sequence (looked up): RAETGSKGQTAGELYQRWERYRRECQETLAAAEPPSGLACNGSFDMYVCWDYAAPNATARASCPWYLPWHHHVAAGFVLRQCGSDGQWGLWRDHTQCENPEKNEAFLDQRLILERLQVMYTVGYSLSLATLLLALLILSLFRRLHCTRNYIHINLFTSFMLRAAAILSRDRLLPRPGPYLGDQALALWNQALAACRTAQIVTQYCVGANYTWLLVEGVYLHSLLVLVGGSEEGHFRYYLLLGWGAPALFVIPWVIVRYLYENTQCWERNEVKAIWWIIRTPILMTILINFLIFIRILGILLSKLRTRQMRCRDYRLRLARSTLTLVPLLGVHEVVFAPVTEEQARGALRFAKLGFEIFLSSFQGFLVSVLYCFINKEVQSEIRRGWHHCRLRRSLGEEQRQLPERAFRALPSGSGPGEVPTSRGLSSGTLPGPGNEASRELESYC

B1: SEQ ID NO: 264 (peptide)
peptide: H[Aib]EGS[αMeF]TSDV[αMeS]SK([PEG2′-PEG2′-γGlu-Lauroyl])LEGEAA[αMeK]EFIAWK([PEG2′-PEG2′-γGlu-Lauroyl])VEGG-NH2
B2: SEQ ID NO: 263 (peptide)
peptide: H[Aib]EGS[αMeF]TSDV[αMeS]SK([PEG2′-PEG2′-γGlu-Lauroyl])LEGEAA[αMeK]EFIAK([PEG2′-PEG2′-γGlu-Lauroyl])VVEGG-NH2
B3: SEQ ID NO: 262 (peptide)
peptide: H[Aib]EGS[αMeF]TSDV[αMeS]SK([PEG2′-PEG2′-γGlu-Lauroyl])LEGEAA[αMeK]EFIK([PEG2′-PEG2′-γGlu-Lauroyl])WVVEGG-NH2
B4: SEQ ID NO: 265 (peptide)
peptide: H[Aib]EGS[αMeF]TSDV[αMeS]SK([PEG2′-PEG2′-γGlu-Palmitoyl])LEGEAA[αMeK]EFIK([PEG2′-PEG2′-γGlu-Palmitoyl])WVVEGG-NH2
B5: SEQ ID NO: 269 (peptide)
peptide: H[Aib]EGS[αMeF]TSDV[αMeS]SYK([PEG2′-PEG2′-γGlu-Lauroyl])EGEAA[αMeK]EFIAK([PEG2′-PEG2′-γGlu-Lauroyl])VVEGG-NH2

Starred links: 1 amine or outer side, 2 acyl side, 3 side chain; linkers in the order of their positions; H or OH if unused. Non-standard residues stand in square brackets, D forms with d. Groups on a side chain read outwards from the residue. Primed or numbered codes have the meaning given here. No end group written: not given here. *: point of attachment. γGlu = O=C(O)[C@H](CCC(=O)[*:2])N[*:1]; Palmitoyl = CCCCCCCCCCCCCCCC(=O)*; αMeF = C[C@](N)(Cc1ccccc1)C(=O)O; αMeK = C[C@](N)(CCCCN)C(=O)O; Lauroyl = CCCCCCCCCCCC(=O)*; αMeS = C[C@](N)(CO)C(=O)O; PEG2′ = not defined here; Aib = CC(C)(N)C(=O)O

The target in the first test is T1, GLP-1R in the INS1e assay. The experiment in a line: cell-based or functional assay.
Consider B1, for which the “INS1e assay EC50 (cAMP) Mean” value was 1.03 nM, the “INS1e assay EC50 (cAMP) n1” value came out at 0.963 nM and the “INS1e assay EC50 (cAMP) n2” value was 1.1 nM.
B2: the “INS1e assay EC50 (cAMP) Mean” value came to 0.132 nM, the “INS1e assay EC50 (cAMP) n1” value is 0.12 nM and the “INS1e assay EC50 (cAMP) n2” value turned out to be 0.144 nM.
As to B3, the “INS1e assay EC50 (cAMP) Mean” value was found to be 0.552 nM, the “INS1e assay EC50 (cAMP) n1” value is 0.7 nM and the “INS1e assay EC50 (cAMP) n2” value came to 0.403 nM.
Consider B4, for which the “INS1e assay EC50 (cAMP) Mean” value was 8.77 nM, the “INS1e assay EC50 (cAMP) n1” value amounted to 12.2 nM and the “INS1e assay EC50 (cAMP) n2” value is 5.34 nM.
The corresponding values for B5 are 0.212 nM, 0.243 nM and 0.181 nM.

A further test deals with GLP-1 receptor (GLP-1R), primary cAMP assay (human, UniProt P43220 24-463). Kind of test: cell-based or functional assay.
For B1, the “Primary assay EC50 (cAMP) Mean” value amounted to 0.0128 nM; the “Primary assay EC50 (cAMP), n1” value came out at 0.0182 nM; the “Primary assay EC50 (cAMP), n2” value stood at 0.00737 nM.
With B2, the “Primary assay EC50 (cAMP) Mean” value amounted to 0.0012 nM; the “Primary assay EC50 (cAMP), n1” value was 0.000998 nM; the “Primary assay EC50 (cAMP), n2” value is 0.00145 nM.
For B3, in that order: 0.0054 nM, 0.00673 nM and 0.00414 nM.
The corresponding values for B4 are 0.0336 nM, 0.0391 nM and 0.028 nM.
The corresponding values for B5 are 0.0046 nM, 0.00401 nM and 0.00524 nM.

The target in another test is glucagon receptor (GCGR), primary cAMP assay (human, UniProt P47871 26-477). Kind of test: cell-based or functional assay.
glucagon receptor (GCGR), primary cAMP assay, sequence (P47871 26-477): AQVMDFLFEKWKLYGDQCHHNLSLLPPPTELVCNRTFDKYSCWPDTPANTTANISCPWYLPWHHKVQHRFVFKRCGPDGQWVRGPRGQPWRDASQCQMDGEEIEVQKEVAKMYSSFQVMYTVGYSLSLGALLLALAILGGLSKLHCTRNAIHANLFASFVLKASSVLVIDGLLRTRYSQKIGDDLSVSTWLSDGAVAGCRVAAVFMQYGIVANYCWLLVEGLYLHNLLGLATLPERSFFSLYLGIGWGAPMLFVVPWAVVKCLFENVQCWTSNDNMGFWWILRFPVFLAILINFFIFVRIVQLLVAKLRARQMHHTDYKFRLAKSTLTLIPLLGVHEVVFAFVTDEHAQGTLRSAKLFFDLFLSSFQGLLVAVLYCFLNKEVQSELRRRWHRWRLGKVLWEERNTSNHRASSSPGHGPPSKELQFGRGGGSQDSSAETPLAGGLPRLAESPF
Regarding B1, the “Primary assay EC50 (cAMP), n1” value was found to be 22.6 nM and the “Primary assay EC50 (cAMP), n2” value turned out to be 22.6 nM.
For the molecule B2, the “Primary assay EC50 (cAMP), n1” value was 21.5 nM and the “Primary assay EC50 (cAMP), n2” value stood at 21.5 nM.
Consider B3, for which the “Primary assay EC50 (cAMP), n1” value was 22.5 nM and the “Primary assay EC50 (cAMP), n2” value amounted to 22.5 nM.
As for B4, the “Primary assay EC50 (cAMP), n1” value worked out at 21.6 nM and the “Primary assay EC50 (cAMP), n2” value was 21.6 nM.
With B5, the “Primary assay EC50 (cAMP), n1” value turned out to be 22.8 nM and the “Primary assay EC50 (cAMP), n2” value was 22.8 nM.

The target in the next test is T2, glucose-dependent insulinotropic …. The experiment in a line: cell-based or functional assay.
Take B1: the “Primary assay EC50 (cAMP), n1” value came out at 22.6 nM and the “Primary assay EC50 (cAMP), n2” value was 22.6 nM.
Consider B2, for which the “Primary assay EC50 (cAMP), n1” value was 21.5 nM and the “Primary assay EC50 (cAMP), n2” value came out at 21.5 nM.
With B3, the “Primary assay EC50 (cAMP), n1” value came out at 22.5 nM and the “Primary assay EC50 (cAMP), n2” value came out at 22.5 nM.
Regarding B4, the “Primary assay EC50 (cAMP), n1” value came out at 21.6 nM and the “Primary assay EC50 (cAMP), n2” value came to 21.6 nM.
Turning to B5, the “Primary assay EC50 (cAMP), n1” value worked out at 22.8 nM and the “Primary assay EC50 (cAMP), n2” value was 22.8 nM.

Values taken from patent publication US20200079833A1 (AstraZeneca / MedImmune, published 2020).
